The chains are these.
B1: Cft2(S), residues 1-720 (domain or fragment, S. cerevisiae, UniProt Q12102 1-720, looked up)
chain: MTYKYNCCDDGSGTTVGSVVRFDNVTLLIDPGWNPSKVSYEQCIKYWEKVIPEIDVIILSQPTIECLGAHSLLYYNFTSHFISRIQVYATLPVINLGRVSTIDSYASAGVIGPYDTNKLDLEDIEISFDHIVPLKYSQLVDLRSRYDGLTLLAYNAGVCPGGSIWCISTYSEKLVYAKRWNHTRDNILNAASILDATGKPLSTLMRPSAIITTLDRFGSSQPFKKRSKIFKDTLKKGLSSDGSVIIPVDMSGKFLDLFTQVHELLFESTKINAHTQVPVLILSYARGRTLTYAKSMLEWLSPSLLKTWENRNNTSPFEIGSRIKIIAPNELSKYPGSKICFVSEVGALINEVIIKVGNSEKTTLILTKPSFECASSLDKILEIVEQDERNWKTFPEDGKSFLCDNYISIDTIKEEPLSKEETEAFKVQLKEKKRDRNKKILLVKRESKKLANGNAIIDDTNGERAMRNQDILVENVNGVPPIDHIMGGDEDDDEEEENDNLLNLLKDNSEKSAAKKNTEVPVDIIIQPSAASKHKMFPFNPAKIKKDDYGTVVDFTMFLPDDSDNVNQNSRKRPLKDGAKTTSPVNEEDNKNEEEDGYNMSDPISKRSKHRASRYSGFSGTGEAENFDNLDYLKIDKTLSKRTISTVNVQLKCSVVILNLQSLVDQRSASIIWPSLKSRKIVLSAPKQIQNEEITAKLIKKNIEVVNMPLNKIVEFSTTI

For one experiment, the target named is T1, Cft1 (S. cerevisiae, UniProt Q06632 1-1357).
T1 sequence (looked up): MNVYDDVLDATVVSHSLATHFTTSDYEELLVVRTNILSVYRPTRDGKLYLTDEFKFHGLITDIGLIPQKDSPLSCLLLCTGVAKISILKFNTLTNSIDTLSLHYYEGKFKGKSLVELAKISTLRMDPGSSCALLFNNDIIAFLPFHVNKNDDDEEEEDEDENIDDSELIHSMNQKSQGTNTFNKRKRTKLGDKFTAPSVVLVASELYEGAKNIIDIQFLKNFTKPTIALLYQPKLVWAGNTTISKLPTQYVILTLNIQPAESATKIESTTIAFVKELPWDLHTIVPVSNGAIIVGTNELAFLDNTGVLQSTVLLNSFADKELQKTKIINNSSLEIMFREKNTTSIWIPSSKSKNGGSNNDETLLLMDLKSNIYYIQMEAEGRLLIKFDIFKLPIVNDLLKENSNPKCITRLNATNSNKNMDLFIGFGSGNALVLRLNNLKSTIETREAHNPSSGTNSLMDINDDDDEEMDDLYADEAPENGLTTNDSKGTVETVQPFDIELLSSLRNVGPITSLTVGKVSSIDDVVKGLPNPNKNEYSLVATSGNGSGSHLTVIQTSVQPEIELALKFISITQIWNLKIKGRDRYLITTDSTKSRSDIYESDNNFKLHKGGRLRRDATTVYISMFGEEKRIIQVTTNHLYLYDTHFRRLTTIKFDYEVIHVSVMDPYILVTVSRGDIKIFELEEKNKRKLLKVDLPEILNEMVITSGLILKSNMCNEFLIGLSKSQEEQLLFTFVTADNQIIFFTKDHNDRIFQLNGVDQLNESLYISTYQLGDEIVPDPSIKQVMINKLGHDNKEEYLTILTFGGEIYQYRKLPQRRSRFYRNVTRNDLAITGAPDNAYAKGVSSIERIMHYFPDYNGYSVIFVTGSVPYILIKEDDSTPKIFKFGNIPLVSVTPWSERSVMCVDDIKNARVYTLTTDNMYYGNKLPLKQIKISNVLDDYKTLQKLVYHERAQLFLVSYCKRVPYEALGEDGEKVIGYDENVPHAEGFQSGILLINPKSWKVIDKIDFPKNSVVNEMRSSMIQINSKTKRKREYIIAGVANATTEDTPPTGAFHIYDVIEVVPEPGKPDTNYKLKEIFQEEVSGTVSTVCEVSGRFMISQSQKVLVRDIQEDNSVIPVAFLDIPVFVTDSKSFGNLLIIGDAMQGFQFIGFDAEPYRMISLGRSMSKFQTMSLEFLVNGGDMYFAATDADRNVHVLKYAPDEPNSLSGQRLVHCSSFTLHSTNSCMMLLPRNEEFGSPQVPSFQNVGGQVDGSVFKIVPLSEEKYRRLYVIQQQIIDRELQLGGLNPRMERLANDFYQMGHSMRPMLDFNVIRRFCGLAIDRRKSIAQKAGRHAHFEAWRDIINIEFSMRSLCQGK
The experiment can be described thus: cryo-EM structure.

Experiment [1] concerns the target B1. The experiment can be described thus: cryo-EM structure.
In experiment [2] the target is B1. Briefly: cross-linking.

On to B1, for which the binding result in the experiment with Cft1 is recorded as “binds”.

B2: Pfs2 with SII tag, as subunit of the purified polymerase module (natural protein, S. cerevisiae, UniProt P42841 1-465, looked up)
chain: MDGHNQNQYQNQNQIQQSQQPPLKKYVTQRRSVDVSSPYINLYYNRRHGLPNLVVEPETSYTIDIMPPNAYRGRDRVINLPSKFTHLSSNKVKHVIPAIQWTPEGRRLVVATYSGEFSLWNASSFTFETLMQAHDSAVTTMKYSHDSDWMISGDADGMIKIWQPNFSMVKEIDAAHTESIRDMAFSSNDSKFVTCSDDNILKIWNFSNGKQERVLSGHHWDVKSCDWHPEMGLIASASKDNLVKLWDPRSGNCISSILKFKHTVLKTRFQPTKGNLLMAISKDKSCRVFDIRYSMKELMCVRDETDYMTLEWHPINESMFTLACYDGSLKHFDLLQNLNEPILTIPYAHDKCITSLSYNPVGHIFATAAKDRTIRFWTRARPIDPNAYDDPTYNNKKINGWFFGINNDINAVREKSEFGAAPPPPATLEPHALPNMNGFINKKPRQEIPGIDSNIKSSTLPGLSI
Take B2: in the experiment with Cft2(S), residues 1-720 [1], the binding result was “binds”.

B3: Yth1 (natural protein, S. cerevisiae, UniProt Q06102 1-208, looked up)
chain: MSLIHPDTAKYPFKFEPFLRQEYSFSLDPDRPICEFYNSREGPKSCPRGPLCPKKHVLPIFQNKIVCRHWLRGLCKKNDQCEYLHEYNLRKMPECVFFSKNGYCTQSPDCQYLHIDPASKIPKCENYEMGFCPLGSSCPRRHIKKVFCQRYMTGFCPLGKDECDMEHPQFIIPDEGSKLRIKRDDEINTRKMDEEKERRLNAIINGEV
Consider B3, for which the binding result with Cft2(S), residues 1-720 [2] is listed as “binds”.

The values above are taken from doi:10.1101/2021.09.02.458805 (bioRxiv, 2021).
